The experiment deals with T1, EGFR-Fc fusion protein (recombinant EGFR extracellular region-Fc) (human, UniProt P00533 25-645).
T1 construct: extracellular domain; not shown: Fc part supplied by vector pABG1
The experiment in a line: BLI ForteBio QKe, biotinylated EGFR-Fc on streptavidin sensor, antibody 20 nM; fold reduction of affinity, parent Ame55 = 1.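 Also: parent antibody affinity set as 1, with values giving the fold drop in affinity of each mutant antibody relative to that parent.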 Background: Biolayer interferometry detects binding as a change in optical thickness at a sensor tip.

Residue numbers refer to the chain shown, from its start. Bounds are passed on as bounds.

B1: Ame55 mutant, heavy chain 51A (antibody, V domains shown)
VH: EVQLVQSGAEVKKPGESLKISCKGSGYSFTSYWIGWVRQMPGKGLEWMGIAYPGDSDTRYSPSFQGQVTISADKSISTAYLQWSSLKASDTAMYYCARGIIYPSNVAVWGQGTLVTVSS
VL: SYELTQPPSVSVAPGQTARITCSGDALGDKYASWYQQKPGQAPVLVIYEDSKRPSGIPERFSGSNSGNTATLTISGTQAEDEADYYCSVWDGDWGMPVFGGGTKLTVLG
notes: Mutant of Ame55
Consider B1, for which the Affinity change is above 10 fold.

B2: Ame55 mutant, light chain 88N (antibody, V domains shown)
VH: B1 VH with A51I
VL: B1 VL with S88N
notes: Mutant of Ame55
With B2, the Affinity change was above 10 fold.

B3: Ame55 mutant, heavy chain 54S (antibody, V domains shown)
VH: B1 VH with A51I, G54S
VL: B1 VL
notes: Mutant of Ame55
In the case of B3, the Affinity change worked out at 0.5 fold.

B4: Ame55 mutant, heavy chain 59N (antibody, V domains shown)
VH: B1 VH with A51I, R59N
VL: B1 VL
notes: Mutant of Ame55
As to B4, the Affinity change is above 10 fold.

B5: Ame55 mutant, heavy chain 101A (antibody, V domains shown)
VH: B1 VH with A51I, I101A
VL: B1 VL
notes: Mutant of Ame55
For the molecule B5, the Affinity change was determined as 4 fold.

B6: Ame55 mutant, heavy chain 99S (antibody, V domains shown)
VH: B1 VH with A51I, G99S
VL: B1 VL
notes: Mutant of Ame55
B6: the Affinity change was above 10 fold.

B7: Ame55 mutant, heavy chain 107S (antibody, V domains shown)
VH: B1 VH with A51I, A107S
VL: B1 VL
notes: Mutant of Ame55
With B7, the Affinity change is 0.2 fold.

B8: Ame55 mutant, light chain 33Y (antibody, V domains shown)
VH: B1 VH with A51I
VL: B1 VL with S33Y
notes: Mutant of Ame55
Turning to B8, the Affinity change stood at 2 fold.

B9: Ame55 mutant, heavy chain 106A (antibody, V domains shown)
VH: B1 VH with A51I, V106A
VL: B1 VL
notes: Mutant of Ame55
B9: the Affinity change was above 10 fold.

B10: Ame55 mutant, light chain 91A (antibody, V domains shown)
VH: B1 VH with A51I
VL: B1 VL with D91A
notes: Mutant of Ame55
Turning to B10, the Affinity change was above 10 fold.

B11: Ame55 mutant, light chain 94A (antibody, V domains shown)
VH: B1 VH with A51I
VL: B1 VL with W94A
notes: Mutant of Ame55
For B11, the Affinity change is above 10 fold.

B12: Ame55 mutant, heavy chain 56A (antibody, V domains shown)
VH: B1 VH with A51I, S56A
VL: B1 VL
notes: Mutant of Ame55
With B12, the Affinity change is 1 fold.

B13: Ame55 mutant, light chain 88G (antibody, V domains shown)
VH: B1 VH with A51I
VL: B1 VL with S88G
notes: Mutant of Ame55
On to B13, for which the Affinity change worked out at 3 fold.

B14: Ame55 mutant, heavy chain 100A (antibody, V domains shown)
VH: B1 VH with A51I, I100A
VL: B1 VL
notes: Mutant of Ame55
As to B14, the Affinity change worked out at 5 fold.

B15: Ame55 mutant, light chain 88L (antibody, V domains shown)
VH: B1 VH with A51I
VL: B1 VL with S88L
notes: Mutant of Ame55
As for B15, the Affinity change came to 5 fold.

B16: Ame55 mutant, light chain 93A (antibody, V domains shown)
VH: B1 VH with A51I
VL: B1 VL with D93A
notes: Mutant of Ame55
For the molecule B16, the Affinity change is above 10 fold.

B17: Ame55 mutant, light chain 32I (antibody, V domains shown)
VH: B1 VH with A51I
VL: B1 VL with A32I
notes: Mutant of Ame55
With B17, the Affinity change came out at 1 fold.

B18: Ame55 mutant, light chain 92S (antibody, V domains shown)
VH: B1 VH with A51I
VL: B1 VL with G92S
notes: Mutant of Ame55
Turning to B18, the Affinity change is 4 fold.

B19: Ame55 mutant, light chain 26G(C1) (antibody, V domains shown)
VH: B1 VH with A51I
VL: B1 VL with A26G
notes: Mutant of Ame55
Take B19: the Affinity change was determined as 0.5 fold.

B20: Ame55 mutant, light chain 26N(C2) (antibody, V domains shown)
VH: B1 VH with A51I
VL: B1 VL with A26N
notes: Mutant of Ame55
Regarding B20, the Affinity change is 1 fold.

B21: Ame55 mutant, light chain 90A (antibody, V domains shown)
VH: B1 VH with A51I
VL: B1 VL with W90A
notes: Mutant of Ame55
In the case of B21, the Affinity change is above 10 fold.

B22: Ame55 mutant, light chain 88Y (antibody, V domains shown)
VH: B1 VH with A51I
VL: B1 VL with S88Y
notes: Mutant of Ame55
Turning to B22, the Affinity change was 5 fold.

B23: Ame55 mutant, heavy chain 52D (antibody, V domains shown)
VH: B1 VH with A51I, Y52D
VL: B1 VL
notes: Mutant of Ame55
As for B23, the Affinity change was above 10 fold.

B24: Ame55 mutant, light chain 89L (antibody, V domains shown)
VH: B1 VH with A51I
VL: B1 VL with V89L
notes: Mutant of Ame55
For the molecule B24, the Affinity change was found to be 5 fold.

B25: Ame55 mutant, light chain 51G (antibody, V domains shown)
VH: B1 VH with A51I
VL: B1 VL with S51G
notes: Mutant of Ame55
For the molecule B25, the Affinity change turned out to be 1 fold.

B26: Ame55 mutant, light chain 88Q (antibody, V domains shown)
VH: B1 VH with A51I
VL: B1 VL with S88Q
notes: Mutant of Ame55
Regarding B26, the Affinity change stood at 2 fold.

B27: Ame55 mutant, heavy chain 60A (antibody, V domains shown)
VH: B1 VH with A51I, Y60A
VL: B1 VL
notes: Mutant of Ame55
As for B27, the Affinity change was found to be 5 fold.

B28: Ame55 mutant, light chain 29E (antibody, V domains shown)
VH: B1 VH with A51I
VL: B1 VL with D29E
notes: Mutant of Ame55
With B28, the Affinity change was above 100 fold.

B29: Ame55 mutant, heavy chain 105A (antibody, V domains shown)
VH: B1 VH with A51I, N105A
VL: B1 VL
notes: Mutant of Ame55
On to B29, for which the Affinity change is above 10 fold.

B30: Ame55 mutant, heavy chain 104A (antibody, V domains shown)
VH: B1 VH with A51I, S104A
VL: B1 VL
notes: Mutant of Ame55
B30: the Affinity change was determined as 3 fold.

B31: Ame55 mutant, light chain 92A (antibody, V domains shown)
VH: B1 VH with A51I
VL: B1 VL with G92A
notes: Mutant of Ame55
Regarding B31, the Affinity change is 2 fold.

B32: Ame55 mutant, heavy chain 108A (antibody, V domains shown)
VH: B1 VH with A51I, V108A
VL: B1 VL
notes: Mutant of Ame55
With B32, the Affinity change is 5 fold.

B33: Ame55 mutant, light chain 55P (antibody, V domains shown)
VH: B1 VH with A51I
VL: B1 VL with S55P
notes: Mutant of Ame55
Take B33: the Affinity change worked out at 2 fold.

B34: Ame55 mutant, light chain 92P (antibody, V domains shown)
VH: B1 VH with A51I
VL: B1 VL with G92P
notes: Mutant of Ame55
In the case of B34, the Affinity change was 1 fold.

B35: Ame55 mutant, heavy chain 58A (antibody, V domains shown)
VH: B1 VH with A51I, T58A
VL: B1 VL
notes: Mutant of Ame55
Consider B35, for which the Affinity change was above 10 fold.

B36: Ame55 mutant, heavy chain 54A (antibody, V domains shown)
VH: B1 VH with A51I, G54A
VL: B1 VL
notes: Mutant of Ame55
Turning to B36, the Affinity change was above 10 fold.

B37: Ame55 mutant, light chain 32V (antibody, V domains shown)
VH: B1 VH with A51I
VL: B1 VL with A32V
notes: Mutant of Ame55
B37: the Affinity change was 2 fold.

B38: Ame55 mutant, heavy chain 107G (antibody, V domains shown)
VH: B1 VH with A51I, A107G
VL: B1 VL
notes: Mutant of Ame55
B38: the Affinity change worked out at 1.5 fold.

B39: Ame55 mutant, light chain 26K(C3) (antibody, V domains shown)
VH: B1 VH with A51I
VL: B1 VL with A26K
notes: Mutant of Ame55
On to B39, for which the Affinity change stood at 0.3 fold.

B40: Ame55 mutant, light chain 88A (antibody, V domains shown)
VH: B1 VH with A51I
VL: B1 VL with S88A
notes: Mutant of Ame55
For B40, the Affinity change was above 10 fold.

B41: Ame55 mutant, heavy chain 53A (antibody, V domains shown)
VH: B1 VH with A51I, P53A
VL: B1 VL
notes: Mutant of Ame55
B41: the Affinity change amounted to 5 fold.

B42: Ame55 mutant, heavy chain 59A (antibody, V domains shown)
VH: B1 VH with A51I, R59A
VL: B1 VL
notes: Mutant of Ame55
Consider B42, for which the Affinity change was above 10 fold.

B43: Ame55 mutant, heavy chain 55A (antibody, V domains shown)
VH: B1 VH with A51I, D55A
VL: B1 VL
notes: Mutant of Ame55
In the case of B43, the Affinity change was above 100 fold.

B44: Ame55 mutant, heavy chain 99A (antibody, V domains shown)
VH: B1 VH with A51I, G99A
VL: B1 VL
notes: Mutant of Ame55
In the case of B44, the Affinity change is above 10 fold.

For the origin of these results see patent US20150274828A1 (SHANGHAI SERUM BIOTECHNOLOGY, published 2015).
